Data: patent US20030105278A1 (MERK, published 2003)
Bridges are numbered along the chain shown (N, C = ends). Where no end group is shown, it is not given here.

B1: MCH analog SEQ. ID. NO. 14: Asp-Phe-Ala-Met-Leu-Arg-Cys-Met-Leu-Gly-Ara-Val-Phe-Arg-Pro-Cys-Trp-Gin-Tyr (peptide)
peptide: DFAMLRCMLGRVFRPCWQY
modifications: disulfide 7-16 (inferred)
B2: MCH analog SEQ. ID. NO. 12: Ac-Cys-Met-Leu-Gly-Arg-Val-Tyr-Arg-Pro-Cys-Trp-Gln-Val (peptide)
peptide: Ac-CMLGRVYRPCWQV
modifications: disulfide 1-10 (inferred)
B3: mammalian MCH (SEQ. ID. NO. 11) (peptide)
peptide: DFDMLRCMLGRVYRPCWQV
modifications: disulfide 7-16
B4: MCH analog SEQ. ID. NO. 13: Asp-Phe-Asp-Nle-Leu-Arg-Cys-Nle-Leu-Gly-Arg-Val-Tyr-Arg-Pro-Cys-Trp-Gln-Val (peptide)
peptide: DFDXLRCXLGRVYRPCWQV
modifications: norleucine (Nle) at positions 4 and 8; cyclization (S-S) between the two Cys
B5: MCH analog SEQ. ID. NO. 57 (position 10: D-Pro) (peptide)
peptide: RCMLXRVYRPC
modifications: D-Pro at position 10; N-terminal acetyl, C-terminal amide, Cys-Cys disulfide as in SEQ. ID. NO. 7
notes: ID; NO; 7 peptide; MCH position numbering
B6: MCH analog SEQ. ID. NO. 50 (position 10: Pro) (peptide)
peptide: RCMLPRVYRPC
modifications: N-terminal acetyl, C-terminal amide, Cys-Cys disulfide as in SEQ. ID. NO. 7
notes: as for B5
B7: MCH analog SEQ. ID. NO. 54 (position 10: Glu) (peptide)
peptide: RCMLERVYRPC
modifications: N-terminal acetyl, C-terminal amide, Cys-Cys disulfide as in SEQ. ID. NO. 7
notes: as for B5
B8: MCH analog SEQ. ID. NO. 53 (position 10: Lys) (peptide)
peptide: RCMLKRVYRPC
modifications: N-terminal acetyl, C-terminal amide, Cys-Cys disulfide as in SEQ. ID. NO. 7
notes: as for B5
B9: MCH analog SEQ. ID. NO. 47 (position 10: Ala) (peptide)
peptide: RCMLARVYRPC
modifications: N-terminal acetyl, C-terminal amide, Cys-Cys disulfide as in SEQ. ID. NO. 7
notes: as for B5
B10: MCH analog SEQ. ID. NO. 48 (position 10: Leu) (peptide)
peptide: RCMLLRVYRPC
modifications: N-terminal acetyl, C-terminal amide, Cys-Cys disulfide as in SEQ. ID. NO. 7
notes: as for B5
B11: MCH analog SEQ. ID. NO. 52 (position 10: Ser) (peptide)
peptide: RCMLSRVYRPC
modifications: N-terminal acetyl, C-terminal amide, Cys-Cys disulfide as in SEQ. ID. NO. 7
notes: as for B5
B12: MCH analog SEQ. ID. NO. 51 (position 10: Asn) (peptide)
peptide: RCMLNRVYRPC
modifications: N-terminal acetyl, C-terminal amide, Cys-Cys disulfide as in SEQ. ID. NO. 7
notes: as for B5
B13: MCH analog SEQ. ID. NO. 16 (D-Cys^7) (peptide)
peptide: RXMLGRVYRPC
modifications: D-Cys^7; N-terminal acetyl, C-terminal amide, Cys-Cys disulfide as in SEQ. ID. NO. 7
B14: MCH analog SEQ. ID. NO. 24 (D-Cys^16) (peptide)
peptide: RCMLGRVYRPX
modifications: D-Cys^16; N-terminal acetyl, C-terminal amide, Cys-Cys disulfide as in SEQ. ID. NO. 7
B15: MCH analog SEQ. ID. NO. 38 (position 6: Ac) (peptide)
peptide: Ac-CMLGRVYRPC-NH2
modifications: disulfide 1-10
SMILES: CSCC[C@@H]1NC(=O)[C@@H](NC(C)=O)CSSC[C@@H](C(N)=O)NC(=O)[C@@H]2CCCN2C(=O)[C@H](CCCNC(=N)N)NC(=O)[C@H](Cc2ccc(O)cc2)NC(=O)[C@H](C(C)C)NC(=O)[C@H](CCCNC(=N)N)NC(=O)CNC(=O)[C@H](CC(C)C)NC1=O
notes: as for B5
B16: MCH analog SEQ. ID. NO. 39 (position 6: Arg) (peptide)
peptide: RCMLGRVYRPC-NH2
modifications: disulfide 2-11 (inferred)
notes: as for B5
B17: MCH analog SEQ. ID. NO. 31 (position 6: Ac-Ala) (peptide)
peptide: Ac-ACMLGRVYRPC-NH2
modifications: disulfide 2-11
SMILES: CSCC[C@@H]1NC(=O)[C@@H](NC(=O)[C@H](C)NC(C)=O)CSSC[C@@H](C(N)=O)NC(=O)[C@@H]2CCCN2C(=O)[C@H](CCCNC(=N)N)NC(=O)[C@H](Cc2ccc(O)cc2)NC(=O)[C@H](C(C)C)NC(=O)[C@H](CCCNC(=N)N)NC(=O)CNC(=O)[C@H](CC(C)C)NC1=O
notes: as for B5
B18: MCH analog SEQ. ID. NO. 33 (position 6: Ac-Pro) (peptide)
peptide: PCMLGRVYRPC
modifications: Ac-Pro at position 6 (N-terminal acetyl); C-terminal amide, Cys-Cys disulfide as in SEQ. ID. NO. 7
notes: as for B5
B19: MCH analog SEQ. ID. NO. 35 (position 6: Ac-Ser) (peptide)
peptide: SCMLGRVYRPC
modifications: Ac-Ser at position 6 (N-terminal acetyl); C-terminal amide, Cys-Cys disulfide as in SEQ. ID. NO. 7
notes: as for B5
B20: MCH analog SEQ. ID. NO. 34 (position 6: Ac-Asn) (peptide)
peptide: NCMLGRVYRPC
modifications: Ac-Asn at position 6 (N-terminal acetyl); C-terminal amide, Cys-Cys disulfide as in SEQ. ID. NO. 7
notes: as for B5
B21: MCH analog SEQ. ID. NO. 36 (position 6: Ac-Glu) (peptide)
peptide: ECMLGRVYRPC
modifications: Ac-Glu at position 6 (N-terminal acetyl); C-terminal amide, Cys-Cys disulfide as in SEQ. ID. NO. 7
notes: as for B5

Each binder was assayed against T1, human MCH receptor (membranes from a stable CHO or HEK-293 cell line) (human, UniProt Q99705 1-353) (assay: SPA competition vs [125I]-human MCH (Phe13,Tyr19); human MCH receptor cell membranes).
T1 construct: whole, on cells; also called cloned human MCH receptor (CHO clone)
T1 sequence (Q99705 whole entry): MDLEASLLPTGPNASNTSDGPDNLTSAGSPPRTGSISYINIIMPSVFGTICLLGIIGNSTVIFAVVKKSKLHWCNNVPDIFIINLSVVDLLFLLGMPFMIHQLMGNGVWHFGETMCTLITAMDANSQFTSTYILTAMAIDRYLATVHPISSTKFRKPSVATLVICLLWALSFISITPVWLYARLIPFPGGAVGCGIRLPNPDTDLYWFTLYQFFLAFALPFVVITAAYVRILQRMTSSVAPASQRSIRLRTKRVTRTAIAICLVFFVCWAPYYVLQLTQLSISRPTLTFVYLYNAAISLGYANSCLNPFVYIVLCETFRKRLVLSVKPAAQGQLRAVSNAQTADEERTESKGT

IC50 | Binder
0.5 nM | B1
6.4 nM | B2

The binders below were run against T2, human MCH receptor expressed from the open reading frame cDNA SEQ. ID. NO. 1 in 293-AEQ17 cells (human, UniProt Q99705 1-353) (assay: cell-based or functional assay).
T2 sequence (Q99705 whole entry): as above

% Activation at 10 µM | EC50 | Binder
62.2% |  | B1
100% |  | B3
65.9% |  | B4
3% | 492 nM | B2

These binders were tested against T1, human MCH receptor (membranes from a …) (assay: competition vs [125I]-human MCH (Phe13,Tyr19); human MCH receptor cell membranes (Example 3)).

IC50 | Binder
1.2 nM | B5
700 nM | B6
190 nM | B7
110 nM | B8
0.59 nM | B9
0.06 nM | B10
0.32 nM | B11
0.23 nM | B12

Molecular target: T2, human MCH receptor expressed from the …
Assay: cell-based or functional assay
Remark: another data set of the same source

Activation % | Binder
34% | B13
76% | B14
100% | B3

Molecular target: T2, human MCH receptor expressed from the …
Assay: cell-based or functional assay
Remark: another data set of the same source

Activation % | Binder
100% | B3

Molecular target: T1, human MCH receptor (membranes from a …)
Assay: competition vs [125I]-human MCH (Phe13,Tyr19); human MCH receptor cell membranes (Example 3)
Remark: another data set of the same source

IC50 | Binder
1.6 nM | B15
0.13 nM | B16
27 nM | B17
3.4 nM | B18
4.5 nM | B19
2.6 nM | B20
19 nM | B21

Molecular target: T2, human MCH receptor expressed from the …
Assay: cell-based or functional assay
Remark: another data set of the same source

Activation % | Binder
100% | B3

Molecular target: T2, human MCH receptor expressed from the …
Assay: cell-based or functional assay
Remark: another data set of the same source

Activation % | Binder
100% | B3

Molecular target: T2, human MCH receptor expressed from the …
Assay: cell-based or functional assay
Remark: another data set of the same source

Activation % | EC50 | Binder
90% | 190 nM | B5
4% | 519 nM | B6
12% | > 10000 nM | B7
25% | 4500 nM | B8
104% | 31 nM | B9
106% | 23 nM | B10
104% | 65 nM | B11
106% | 23 nM | B12
100% |  | B3

Molecular target: T2, human MCH receptor expressed from the …
Assay: cell-based or functional assay
Remark: another data set of the same source

Activation % | EC50 | Binder
82% | 144 nM | B15
106% | 14 nM | B16
135% | 114 nM | B17
133% | 59 nM | B18
120% | 207 nM | B19
96% | 150 nM | B20
113% | 935 nM | B21
100% |  | B3
